Source: the NTF2 design screens of Basanta et al. (2020)

Assay: protease stability score; higher = more stable; yeast display proteolysis, trypsin and chymotrypsin;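 further: relative to predicted unfolded state with 0 unfolded-like and 1 meaning tenfold more protease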

**Q.** Which protease stability score does the source give for “SEDEEMLRKILELLVESLLTGDWKTVARLADPHVRLEIGDKIFHGRERFIDHLKLLGIDHIEIRLRDMKIIGDKLDTEVEVVERVGDKEIHRDTTLHIRKVNGRWLIKKVILE” here?
**A.** 2.01

**Q.** With “SEDEEMLRLAWEIHREILDTGDWKMFEELADPHTRIEVGEYINVGRETASKFILDNVRKIKNMRLHVHEHRTIDGKLEIHLRVNVNGQHRTLFLFASKFDGVWIITSVVVEIR” as the sequence, how does the protease stability score read?
**A.** 1.18

**Q.** With “SEDEEMLRRIIEELNRAHKTGNWRRIAELMDPDVRLIIGDKENHGRSVLIEWLKRIDHIEVESVDIHHIDSQGDKIILHGQVHLINVYNGVEVQENRDMTVILIKVDGRWFFHSIRVR” as the sequence, how does the protease stability score read?
**A.** 2.56

**Q.** Which protease stability score does the source give for “SEDEEMNRLAIELLLRYMRTGDEHKLEELADPNVRIEVGDKESVGREVFLRFWMHLKKKLGIDVVEIELHEIKHYDGRVHSDTRFIMNVNGVEYRRDTEVVAHKVDGKWMLEHVHVE” here?
**A.** 0.92

**Q.** For “SEDEEMSHNIAKMWVDALMTGDEEVLHNLADPRVRLDINGVIVHGREEFTKTMEDKLRHMRIHHINIRDIDIQGDYVRVDVRSDIFVDGKRHHVTTTLIIFKVNGRWLLHEIVVR”, which protease stability score is on record?
**A.** 1.95

**Q.** Which protease stability score does the source give for “SEDEEMSKEASEWMLEIILTGDEDSLRKLLDPDYRLHVDGQEFHGRENVVKAFMEWLQRFGIKHIHLEDTRIEVQGDKVIVHERTHVDVNGKKTETELFLIALKFDGKWMTHSIEIRYE” here?
**A.** 2.09

**Q.** For “SEDEEMTKKMVEELNHNLLTGDEERLKKQADPNAKVHQGEYNLVGMDQFVRLIKEWRIHHVDMRDIRIFDGVAFIDFEEDIEIDGVRIQTRTHIIILKVNGRWRFKQWEMR”, which protease stability score is on record?
**A.** 0.862

**Q.** Which protease stability score does the source give for “SEDEEMTRKYFERYIRWLVTGDPKLLSELVDPNVKLIYNGRHLHGREFLVEWEMEILREARLHSVHVRDVKLFNGRLRMDVEINIEIGDKKSVVESNIVALKVNGRWVLESYEVD” here?
**A.** 1.42

**Q.** With “SEDEEMVEKAHQIEKESLETGDEKMILDLLDPNVRIRVDGVDFHGWEHAEKLLRELRIERVNLRSFTWQGDFLRLDGELTFDYNGKKIRTKVRIYADKVDGRWFHKSHEVT” as the sequence, how does the protease stability score read?
**A.** 1.1

**Q.** For “SEDEENAERFIQHWVHNMETGNEERLFELADPNVRLDVNGRDLIGREEFQKSMRWLINRVKNITVRVDKVTIQGNKLLVHTEVRVGDKHHETELIFLKVDGRWRIHEMRIV”, which protease stability score is on record?
**A.** 1.52

**Q.** Which protease stability score does the source give for “SEDEENAKFVLHELYKADETGDERKQSHMMDPNVRIIVGDKEWVGRDEVVELMHEIRVHRVHIDDFRFQGDKIEVHGTTKGEFNGKRDVYHVHWLILKIDGRWRLQSLEVR” here?
**A.** 1.11

**Q.** Which protease stability score does the source give for “SEDEENIKRHLEIWFTALKTGDEDTSRRMIDPNARFQVGDKHEHGMDSLVRELLREWKERGIELKSIRTTEIHIQGDKIFLNSRRDVLVNGVRIILETEIRFLKVDGRWLITEVSER” here?
**A.** 1.22

**Q.** With “SEDEENIRRIIRRFVHTFETGDEDIMRELADPHVRLIFNGQHYIGREWVVEIMSEHVKRADHTEVHIHEIHIIGDKVKVHSRLHINVDGVFRNIELRIDIMKVNGRWLIHHVEFR” as the sequence, how does the protease stability score read?
**A.** 1.48

**Q.** With “SEDEENVEKFVRELIHNSRTGDEEKFMSLLDPNTRIHVDGRTFHGMELASEALKLLGVKVFHVHRIKVVGEWAHVDGEVNFNGKDHKVSFHSRKVNGQWLLESVEIQ” as the sequence, how does the protease stability score read?
**A.** 1.22

**Q.** For “SEDEEQAEHFLRLLVEALVTGDEDKIMKLIDPNVRLEAEGHDHHGRELFVKFWMELRVKEVQIEDVKLWNGRVRFDVRFDGTFNGKRFESTSHIILTKINGKWVLKKVEMR”, which protease stability score is on record?
**A.** 0.106

**Q.** For “SEDEEQAERFARELIEVLRTGNEELLTHLLDPNTMLRVNGVEHHGREAYLHYTREMRYHHIDIEHFDVQGDKLYLHNRMDGQVDGRRVDVRIRIQVEKVNGRWKLRQERHQ”, which protease stability score is on record?
**A.** 0.524

**Q.** Which protease stability score does the source give for “SEDEEQARHFVEMLEHVERTGDWRELEKLVDPHVIMDIDGVRHHGRHEVVDLSKKLGVDHVSLEHLEVQGDKAIIHFNMHVNGVEMHHHVDTRKVNGRWLNERIILK” here?
**A.** 0.488

**Q.** For “SEDEEQMKRFLDHWIHFLQTGDEEESNKLADPHTRMEIGDFELHGREEYRKWFRHIIERVDHTDVRTKDSDIVNGVAIHDIEIHIEVGDKRIRRKSEMVVLKVDGRWYIQRMHFI”, which protease stability score is on record?
**A.** 0.846

**Q.** For “SEDEEQSRHAFELWVRAYLTGNEEFLEKNADPNTRFIVGDKHIHGRELVFEFLKRIIDRRGMEIKDIKMRDMRVIGEKIEVDTTLHQHYNGVDFDHQIHFIMIKIDGKWKIKTIEIR”, which protease stability score is on record?
**A.** 1.43

**Q.** For “SEDEERARRFFEELIHVLHTGDEDSLIKMADPSVRLDFNGVEAVGREEFERMFKEIWREIRLEDLTSHHIDVFNGRIRIESKSHIEVNGVQITRDELVIVTKINGKWHLHSREVK”, which protease stability score is on record?
**A.** 1.56

**Q.** With “SEDEERLRKFAEHMVNLWFTGNENELTKLIDPDTRIDIDGKELHGMELAFRVLQEHLEKLGVKHQEVRDVEIYGDKFILHWTLHVGDFTLRMEVRIVVINGRVKSMEFRTDHR” as the sequence, how does the protease stability score read?
**A.** 1.89

**Q.** Which protease stability score does the source give for “SEDEERSKLIIDLWEHTQSTGDESLIERLLDPDARSHWDGVHVHGRKATKIMIERIDYVERVDFKEIRTYDGRVEIHGTIDGNFNGRRREMEVIIFVVKVDGKWRIRSIRFT” here?
**A.** 1.3

**Q.** For “SEDEERTRRISKHMLELYKTGDEDTWIKEADPNTINKIHAENHRIENHGREEVHKVLVELWERLGVKHVDLKDFDMQGEKVIIFIELRAENRIVTNIIRIVIIDGKIKSIEIELRFI”, which protease stability score is on record?
**A.** 1.21

**Q.** For “SEDEESAKFVIQLILHSLRTGDFKIIEDLLDPNARVQINGVELHGRERVHEHWERIDHIEDVRIREVSVQGDKLVLNVERREKQGDYESSTKVIIYARKVNGKWVIDEVEVR”, which protease stability score is on record?
**A.** 2.55

**Q.** For “SEDEESFRHIIELMKHSLKTGDWRHLEKLLDPNARVHINGKESHGREEAVKAFRHTWEMLGIDHIEFKDEKIRMQGNKVHVHIDGVINVNGVELKSHFEHHIVKFNGRWHTEKLVIQLD”, which protease stability score is on record?
**A.** 1.93

**Q.** With “SEDEESLKKFIELLFHSLHTGDWKDIHKNLDPHVRIEFNGQELHGREELIELIEELMKRFDHIHFRFRDVRIYGNKAVLETELELRVGDKSSRIDVTIIIEKVNGRWIIRRLHFK” as the sequence, how does the protease stability score read?
**A.** 2.48

**Q.** For “SEDEESMRRAMEIWEKTMETGDERIYEELVDPDVKIEINGKNFIGREDAVKVFHKLGIKVSEIREVRIIGDKMILKGEDNINGRNVDSRLITRKINGKWIIESFSIV”, which protease stability score is on record?
**A.** 1.22

**Q.** Which protease stability score does the source give for “SEDEESSEKAAKFWLEMLRTGDWEEFERLADPNTKTHQGDKTIHGMEIVIEILMRVKGARVDTTHVRIDVQGDFVIFDVDNILNINGVHTEIRIHLRVLKVNGRWRVKELTIKHK” here?
**A.** 1.57

**Q.** With “SEDEESSKFALELMWHWEKTGDEKAISELADPHTLNHVNGVDLHGRELVIHFIHHMRIKRVHLKRIEIRMIGDYLDIRIHGRVDGEINGKDRDFHTDLVLIMRKVDGRWFVKSMSVIII” as the sequence, how does the protease stability score read?
**A.** 1.45

**Q.** With “SEDEETARRIVKELLHDRLTGNEDRIRELADPDVRLIIGEFHMHGMDNFLRVLRFIYHHWRIHDTQMETHEIQGDKAYNHTIIDGEFDGKRHEWQIHILVLKVNGRWRLKTLELH” as the sequence, how does the protease stability score read?
**A.** 1.84

**Q.** For “SEDEETIEDFVKWFVRALKTGDEDTINEMIDPHVLLHINGKDYHGRELVWRHFEELGIKHTELRHLHTYNGRVELESRLIVDGRVHKVHFHARKVNGRWTVTKVEIR”, which protease stability score is on record?
**A.** 2.61

**Q.** With “SEDEETIKRMVERWEKEFRTGDEKSYIENADPNYRLEVGDKTSIGRESVAKALDDLLRKRGVEIRDIKVHDVKIVGDFIHMDITFRGTQGDKEFDLKVILISKKVNGRWVPEHVHVH” as the sequence, how does the protease stability score read?
**A.** 0.789

**Q.** For “SEDEETLSEAIRLLLESLQTGDWRTFDKLIDPHARLVIDGKELHGRDLITTLLTHWRVEHFKIRHIEVQGEKVRIEGEVRGDIDGRKKDTHVRLTAEKINGRWLTQIVIIH”, which protease stability score is on record?
**A.** 1.98

**Q.** Which protease stability score does the source give for “SEDEETSEELARRFSKAMKTGDFDHLVQQLDPNVRIDINGKEMIGRERFEEDMRRLNLSNIHFITRDIKVEIQGEMLHVRIDGHTRINGKDVKTHDIWIFEKIDGRWRLKEWIVHEE” here?
**A.** 0.913

**Q.** With “SEDEETVHEWFEVLRRDWATGNEENLMKLLDPHARLIIDGRELHGREHIIEFLRRHREHLGVTNIHVEFHIDNRKIFNGKVEVKGTLTIRINGKEEEREVILIIEKIDGRWYIKNLEIR” as the sequence, how does the protease stability score read?
**A.** 0.552

**Q.** Which protease stability score does the source give for “SEDEEVAERFLRLLIESLMTGDEDSFKSLLDPNDRLHIGEKHNHGRNLIVELLTRFGIELEHIELKSVEVINGRIHVNTHIRFIQGDKHIETEMRLNVDKIDGRWRLRSMHID” here?
**A.** 1.98
